Molecular target: ribosome nascent chain complex RNC_(1A9L) labeled with Cm on the nascent chain (1A9L 56 amb)
Test: FRET or BRET

Kd: 730 pM
Substance: BODIPY-Fl labeled Signal Recognition Particle (SRP; protein component Ffh) (from UniProt P0AGD7 1-453) (complex)

Source: paper PMC3189723
